Starred links: 1 amine or outer side, 2 acyl side, 3 side chain; linkers in the order of their positions; H or OH if unused. Non-standard residues stand in square brackets, D forms with d. TyrEtNAc = (2S)-3-[4-(2-acetamidoethoxy)phenyl]-2-amino-propanoic acid, CC(=O)NCCOc1ccc(C[C@H](N[*:1])C(=O)[*:2])cc1; dProc3CH24Pal = (2R,3S)-3-(4-pyridylmethyl)pyrrolidine-2-carboxylic acid, O=C([C@H]1[C@@H](Cc2ccncc2)CCN1[*:1])[*:2]; dPro(4R-(4-pyridylmethyl)) = O=C(O)[C@H]1C[C@@H](Cc2ccncc2)CN1; Trp(βS-Me,4-F) = C[C@@H](c1c[nH]c2cccc(F)c12)[C@H](N)C(=O)O; Bip(4'-CONH2) = NC(=O)c1ccc(-c2ccc(C[C@H](N)C(=O)O)cc2)cc1; Bip(4'-COOH) = N[C@@H](Cc1ccc(-c2ccc(C(=O)O)cc2)cc1)C(=O)O; Ala(1-bicyclo(1.1.1)pentyl) = N[C@@H](CC12CC(C1)C2)C(=O)O; dPro(3S-(4-F-Bn)) = O=C(O)[C@@H]1NCC[C@@H]1Cc1ccc(F)cc1; Ala(pyrimidin-5-yl) = N[C@@H](Cc1cncnc1)C(=O)O; Phe(4-CONH2) = NC(=O)c1ccc(C[C@H](N)C(=O)O)cc1; Phe(4-COOH) = N[C@@H](Cc1ccc(C(=O)O)cc1)C(=O)O; Pro(cis-4-F) = O=C(O)[C@@H]1C[C@H](F)CN1; Ala(4-THP) = N[C@@H](CC1CCOCC1)C(=O)O; hTyr = N[C@@H](CCc1ccc(O)cc1)C(=O)O; cisHyp = O=C(O)[C@@H]1C[C@H](O)CN1; d(αMeD) = C[C@@](N)(CC(=O)O)C(=O)O; d(αMeN) = C[C@@](N)(CC(N)=O)C(=O)O; 4Pal = N[C@@H](Cc1ccncc1)C(=O)O; aThr = C[C@H](O)[C@H](N)C(=O)O; αMeD = C[C@](N)(CC(=O)O)C(=O)O; d(αMeS) = C[C@@](N)(CO)C(=O)O; NMeDab = CN[C@@H](CCN)C(=O)O; Dab = NCC[C@H](N)C(=O)O; Aib = CC(C)(N)C(=O)O; Sar = CNCC(=O)O
B1: SEQ ID NO: 201 (peptide)
peptide: cyclo([Bip(4'-COOH)][4Pal][Phe(4-COOH)]G[cisHyp][Trp(βS-Me,4-F)][Aib]SW[αMeD][Ala(4-THP)]Q[Dab]G[dPro(4R-(4-pyridylmethyl))])
modifications: ring closure inferred; not fully specified (bridges); printed as Bip4CO2H-4Pal-Phe4COOH-G-Proc4OH-SbMeW4F-Aib-S-W-aMeD-AlaTHP4-Q-Dab-G-dProc4CH24Pal, cyclic (macrolactam)
B2: SEQ ID NO: 219 (peptide)
peptide: cyclo([Bip(4'-COOH)][4Pal][Phe(4-COOH)]G[Pro(cis-4-F)][Trp(βS-Me,4-F)][Aib]SW[d(αMeD)][hTyr]Q[Dab]G[dProc3CH24Pal])
modifications: ring closure inferred; not fully specified (bridges); printed as Bip4CO2H-4Pal-Phe4COOH-G-Proc4F-SbMeW4F-Aib-S-W-daMeD-hY-Q-Dab-G-dProc3CH24Pal, cyclic (macrolactam)
B3: SEQ ID NO: 204 (peptide)
peptide: cyclo([Bip(4'-COOH)][Ala(1-bicyclo(1.1.1)pentyl)][Phe(4-COOH)]G[Pro(cis-4-F)][Trp(βS-Me,4-F)][Aib]SW[d(αMeS)][Ala(4-THP)]Q[Dab]G[dPro(4R-(4-pyridylmethyl))])
modifications: ring closure inferred; not fully specified (bridges); printed as Bip4CO2H-AlaPent-Phe4COOH-G-Proc4F-SbMeW4F-Aib-S-W-daMeS-AlaTHP4-Q-Dab-G-dProc4CH24Pal, cyclic (macrolactam)
B4: SEQ ID NO: 205 (peptide)
peptide: cyclo([Bip(4'-COOH)][4Pal][Phe(4-COOH)]G[Pro(cis-4-F)][Trp(βS-Me,4-F)][Aib]SW[Aib][Ala(pyrimidin-5-yl)]Q[Dab][Sar][dPro(4R-(4-pyridylmethyl))])
modifications: ring closure inferred; not fully specified (bridges); printed as Bip4CO2H-4Pal-Phe4COOH-G-Proc4F-SbMeW4F-Aib-S-W-Aib-PyrimAla-Q-Dab-Sar-dProc4CH24Pal, cyclic (macrolactam)
B5: SEQ ID NO: 217 (peptide)
peptide: cyclo([Bip(4'-CONH2)][Ala(1-bicyclo(1.1.1)pentyl)][Phe(4-COOH)]G[Pro(cis-4-F)][Trp(βS-Me,4-F)][Aib]SW[d(αMeN)][Ala(4-THP)]Q[Dab]G[dPro(3S-(4-F-Bn))])
modifications: ring closure inferred; not fully specified (bridges); printed as Bip4CONH2-AlaPent-Phe4COOH-G-Proc4F-SbMeW4F-Aib-S-W-daMeN-AlaTHP4-Q-Dab-G-dProc3Bn4F, cyclic (macrolactam)
B6: SEQ ID NO: 215 (peptide)
peptide: cyclo([Bip(4'-CONH2)][4Pal][Phe(4-COOH)]G[Pro(cis-4-F)][Trp(βS-Me,4-F)][Aib]SW[d(αMeS)][Ala(4-THP)]Q[Dab]G[dPro(4R-(4-pyridylmethyl))])
modifications: ring closure inferred; not fully specified (bridges); printed as Bip4CONH2-4Pal-Phe4COOH-G-Proc4F-SbMeW4F-Aib-S-W-daMeS-AlaTHP4-Q-Dab-G-dProc4CH24Pal, cyclic (macrolactam)
B7: SEQ ID NO: 211 (peptide)
peptide: cyclo([Bip(4'-COOH)][4Pal][Phe(4-COOH)]G[Pro(cis-4-F)][Trp(βS-Me,4-F)][Aib]SW[Aib][Ala(4-THP)]Q[Dab]G[dPro(4R-(4-pyridylmethyl))])
modifications: ring closure inferred; not fully specified (bridges); printed as Bip4CO2H-4Pal-Phe4COOH-G-Proc4F-SbMeW4F-Aib-S-W-Aib-AlaTHP4-Q-Dab-G-dProc4CH24Pal, cyclic (macrolactam)
B8: SEQ ID NO: 216 (peptide)
peptide: cyclo([Bip(4'-CONH2)][Ala(1-bicyclo(1.1.1)pentyl)][Phe(4-COOH)]G[Pro(cis-4-F)][Trp(βS-Me,4-F)][Aib]SW[d(αMeS)][Ala(4-THP)]Q[Dab]G[dPro(3S-(4-F-Bn))])
modifications: ring closure inferred; not fully specified (bridges); printed as Bip4CONH2-AlaPent-Phe4COOH-G-Proc4F-SbMeW4F-Aib-S-W-daMeS-AlaTHP4-Q-Dab-G-dProc3Bn4F, cyclic (macrolactam)
B9: SEQ ID NO: 213 (peptide)
peptide: cyclo([Bip(4'-COOH)][4Pal][Phe(4-COOH)]G[cisHyp][Trp(βS-Me,4-F)][Aib]SW[d(αMeS)][Ala(4-THP)]Q[Dab]G[dPro(4R-(4-pyridylmethyl))])
modifications: ring closure inferred; not fully specified (bridges); printed as Bip4CO2H-4Pal-Phe4COOH-G-Proc4OH-SbMeW4F-Aib-S-W-daMeS-AlaTHP4-Q-Dab-G-dProc4CH24Pal, cyclic (macrolactam)
B10: SEQ ID NO: 206 (peptide)
peptide: cyclo([Bip(4'-COOH)][4Pal][Phe(4-COOH)]G[Pro(cis-4-F)][Trp(βS-Me,4-F)][Aib]SW[d(αMeS)][Ala(pyrimidin-5-yl)]Q[Dab][Sar][dPro(4R-(4-pyridylmethyl))])
modifications: ring closure inferred; not fully specified (bridges); printed as Bip4CO2H-4Pal-Phe4COOH-G-Proc4F-SbMeW4F-Aib-S-W-daMeS-PyrimAla-Q-Dab-Sar-dProc4CH24Pal, cyclic (macrolactam)
B11: SEQ ID NO: 202 (peptide)
peptide: cyclo([Bip(4'-COOH)][Ala(1-bicyclo(1.1.1)pentyl)][Phe(4-COOH)]G[Pro(cis-4-F)][Trp(βS-Me,4-F)][Aib]SW[αMeD][aThr]Q[Dab]G[dPro(4R-(4-pyridylmethyl))])
modifications: ring closure inferred; not fully specified (bridges); printed as Bip4CO2H-AlaPent-Phe4COOH-G-Proc4F-SbMeW4F-Aib-S-W-aMeD-alT-Q-Dab-G-dProc4CH24Pal, cyclic (macrolactam)
B12: SEQ ID NO: 210 (peptide)
peptide: cyclo([Bip(4'-COOH)][4Pal][Phe(4-COOH)]G[cisHyp][Trp(βS-Me,4-F)][Aib]SW[αMeD][Ala(4-THP)]Q[Dab][Sar][dPro(4R-(4-pyridylmethyl))])
modifications: ring closure inferred; not fully specified (bridges); printed as Bip4CO2H-4Pal-Phe4COOH-G-Proc4OH-SbMeW4F-Aib-S-W-aMeD-AlaTHP4-Q-Dab-Sar-dProc4CH24Pal, cyclic (macrolactam)
B13: SEQ ID NO: 203 (peptide)
peptide: cyclo([Bip(4'-COOH)][Ala(1-bicyclo(1.1.1)pentyl)][Phe(4-COOH)]G[Pro(cis-4-F)][Trp(βS-Me,4-F)][Aib]SW[αMeD]VQ[Dab]G[dPro(4R-(4-pyridylmethyl))])
modifications: ring closure inferred; not fully specified (bridges); printed as Bip4CO2H-AlaPent-Phe4COOH-G-Proc4F-SbMeW4F-Aib-S-W-aMeD-V-Q-Dab-G-dProc4CH24Pal, cyclic (macrolactam)
B14: SEQ ID NO: 207 (peptide)
peptide: cyclo([Bip(4'-COOH)][4Pal][Phe(4-COOH)]G[cisHyp][Trp(βS-Me,4-F)][Aib]SW[d(αMeS)][Ala(4-THP)]Q[Dab][Sar][dPro(4R-(4-pyridylmethyl))])
modifications: ring closure inferred; not fully specified (bridges); printed as Bip4CO2H-4Pal-Phe4COOH-G-Proc4OH-SbMeW4F-Aib-S-W-daMeS-AlaTHP4-Q-Dab-Sar-dProc4CH24Pal, cyclic (macrolactam)
B15: SEQ ID NO: 212 (peptide)
peptide: cyclo([Bip(4'-COOH)][4Pal][Phe(4-COOH)]G[cisHyp][Trp(βS-Me,4-F)][Aib]SW[Aib][Ala(4-THP)]Q[Dab]G[dPro(4R-(4-pyridylmethyl))])
modifications: ring closure inferred; not fully specified (bridges); printed as Bip4CO2H-4Pal-Phe4COOH-G-Proc4OH-SbMeW4F-Aib-S-W-Aib-AlaTHP4-Q-Dab-G-dProc4CH24Pal, cyclic (macrolactam)
B16: SEQ ID NO: 208 (peptide)
peptide: cyclo([Bip(4'-COOH)][4Pal][Phe(4-COOH)]G[Pro(cis-4-F)][Trp(βS-Me,4-F)][Aib]SW[αMeD][Ala(4-THP)]Q[Dab][Sar][dPro(4R-(4-pyridylmethyl))])
modifications: ring closure inferred; not fully specified (bridges); printed as Bip4CO2H-4Pal-Phe4COOH-G-Proc4F-SbMeW4F-Aib-S-W-aMeD-AlaTHP4-Q-Dab-Sar-dProc4CH24Pal, cyclic (macrolactam)
B17: SEQ ID NO: 209 (peptide)
peptide: cyclo([Bip(4'-COOH)][4Pal][Phe(4-COOH)]G[cisHyp][Trp(βS-Me,4-F)][Aib]SW[αMeD][Ala(pyrimidin-5-yl)]Q[Dab][Sar][dPro(4R-(4-pyridylmethyl))])
modifications: ring closure inferred; not fully specified (bridges); printed as Bip4CO2H-4Pal-Phe4COOH-G-Proc4OH-SbMeW4F-Aib-S-W-aMeD-PyrimAla-Q-Dab-Sar-dProc4CH24Pal, cyclic (macrolactam)

Target: Recombinant human IL-1β (BioLegend 579404) (human, UniProt P01584 117-269)
Experiment: cell-based or functional assay

MRC5 IC50 [nM]	Binder
0.019	B1
0.018	B2
0.017	B3
0.028	B4
0.028	B5
0.01	B6
0.019	B7
0.008	B8
0.021	B9
0.022	B10
0.013	B11
0.029	B12
0.036	cyclo([TyrEtNAc][4Pal][Phe(4-CONH2)]G[Pro(cis-4-F)][Trp(βS-Me,4-F)][Aib]SW[Aib][Ala(pyrimidin-5-yl)]Q[NMeDab]G[dPro(4R-(4-pyridylmethyl))]) (ring closure inferred; not fully specified (bridges)) [SEQ ID NO: 218]
0.016	B13
0.044	B14
0.029	B15
0.015	B16
0.034	B17

From patent US20260242419A1, “A CYCLIC PEPTIDE FOR TRAPPING INTERLEUKIN-1 BETA” (Merck Sharp & Dohme LLC, priority 2023, published 2026)
